Experimental data published in patent US20240092930A1 (MABWELL SHANGHAI BIOSCIENCE, published 2024).
One block for each binder: values may come before it.

Key:
[1] = molecular target: T1, recombinant cynomolgus Trop-2-his protein (ACCESSION NO.: UniProtKB-A0A2K5UE71, AA 1-272) (cynomolgus, UniProt A0A2K5UE71 1-272); experiment: ELISA, coated cynomolgus Trop-2-his 1 µg/ml
T1 construct: The printed range begins at residue 1; not shown: his tag
T1 sequence: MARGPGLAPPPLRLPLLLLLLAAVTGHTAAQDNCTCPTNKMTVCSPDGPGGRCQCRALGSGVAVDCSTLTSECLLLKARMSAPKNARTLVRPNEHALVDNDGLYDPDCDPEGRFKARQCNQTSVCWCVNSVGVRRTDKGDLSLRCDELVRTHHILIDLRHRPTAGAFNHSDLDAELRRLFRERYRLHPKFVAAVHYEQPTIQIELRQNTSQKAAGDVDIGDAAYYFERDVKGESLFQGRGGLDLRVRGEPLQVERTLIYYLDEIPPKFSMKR
Procedure: (§1) Washed with PBS 3 times, the plates were blocked with the added 5% BSA PBS at 37° C. for 60 min, and then washed 3 times with PBST. Different concentrations of h23-12 (serial dilutions of 14 concentrations obtained through 3-fold serially diluting a solution with an initial concentration of 10 μg/ml), h4-3 (serial dilutions of 12 concentrations obtained through 3-fold serially diluting a solution with an initial concentration of 3 μg/ml), and Sacituzumab (serial dilutions of 12 concentrations obtained through 3-fold serially diluting a solution with an initial concentration of 3 μg/ml) were added into the plates, with each concentration provided in a parallel well. The plates were incubated at 37° C. for 60 min, and then were washed 4 times with PBST. 1:5000 dilution of H1RP-anti-human Fc (Cat.: 109-035-098, Jackson ImmunoResearch) was added into the plates for incubation at 37° C. for 30 min. Afterwards, the plates were washed with PBST 4 times, and TMB substrate was added for color development at 37° C. for 10 min. Then 2M HCl was added to stop reaction; and absorbances at 450 nm and at 630 nm (as reference wavelength) were read, and A450 nm-630 nm values of the wells in the plates were recorded.

[2] = molecular target: T2, recombinant human Trop-2-his protein (ACCESSION NO.: NP_002344.2, AA 1-274) (human, UniProt P09758 27-274); experiment: BLI, naked antibody on AHC sensor, Trop-2-his 60 nM, 300 s binding
T2 construct: range 27-274; also called recombinant human Trop-2 protein; recombinant human Trop-2 extracellular domain; not shown: his tag
T2 sequence (looked up): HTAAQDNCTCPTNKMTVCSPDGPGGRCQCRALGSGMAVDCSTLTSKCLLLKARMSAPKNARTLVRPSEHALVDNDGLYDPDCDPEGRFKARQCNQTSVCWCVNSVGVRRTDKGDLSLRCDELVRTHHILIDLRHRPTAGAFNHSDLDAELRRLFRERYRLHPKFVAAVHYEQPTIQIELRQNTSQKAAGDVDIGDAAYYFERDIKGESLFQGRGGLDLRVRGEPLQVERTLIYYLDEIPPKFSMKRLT
Procedure: Affinities of the antibodies were determined by an assay including capturing Fc fragments of the antibodies with anti-human IgG Fc capture (AHC) biosensors using Octet QKe system instrument from Fortebio.
For the assay, SN38-labeled antibodies prepared as described above: h23-12-SN38, ch4-3-SN38, ch11-4-SN38, and positive control antibody Sacituzumab-SN38, as well as naked antibodies h23-12, ch4-3, ch11-4, and positive control antibody Sacituzumab were diluted to 4 μg/ml with PBS and allowed to flow through the surface of an AHC biosensor (Cat.: 18-0015, PALL) for 120 s. Recombinant human Trop-2-his protein (ACCESSION NO.: NP_002344.2, AA 1-274) was used as a mobile phase, and its concentration was 60 nM. The binding time was 300 s and the dissociation time was 300 s. When the assay was finished, data from which the response value of blank control had been deducted were fitted to a 1:1 Langmuir binding model using software, and then kinetic constants for antigen-antibody binding were calculated.

[3] = molecular target: T3, recombinant mouse Trop-2-his protein (Cat.: 50922-M08H, Beijing Yiqiao Shenzhou Science and Technology Co., … (mouse, UniProt Q8BGV3 25-270)); experiment: ELISA, coated mouse Trop-2-his 1 µg/ml
T3 construct: Bought protein; not shown: his tag
T3 sequence (looked up): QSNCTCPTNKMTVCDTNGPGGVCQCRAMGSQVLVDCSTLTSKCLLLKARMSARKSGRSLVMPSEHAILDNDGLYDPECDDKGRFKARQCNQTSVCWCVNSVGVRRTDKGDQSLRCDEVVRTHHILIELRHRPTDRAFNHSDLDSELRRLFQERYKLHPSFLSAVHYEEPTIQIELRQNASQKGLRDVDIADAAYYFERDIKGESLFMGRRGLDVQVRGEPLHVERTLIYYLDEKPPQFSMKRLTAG
Procedure: as §1

[4] = molecular target: T4, human Trop-2 on the surface of cells (CHO/Trop-2 cells; BxPC-3 cells; NCI-N87 cells) (human, UniProt P09758 27-323); experiment: cell-based or functional assay
T4 sequence (looked up): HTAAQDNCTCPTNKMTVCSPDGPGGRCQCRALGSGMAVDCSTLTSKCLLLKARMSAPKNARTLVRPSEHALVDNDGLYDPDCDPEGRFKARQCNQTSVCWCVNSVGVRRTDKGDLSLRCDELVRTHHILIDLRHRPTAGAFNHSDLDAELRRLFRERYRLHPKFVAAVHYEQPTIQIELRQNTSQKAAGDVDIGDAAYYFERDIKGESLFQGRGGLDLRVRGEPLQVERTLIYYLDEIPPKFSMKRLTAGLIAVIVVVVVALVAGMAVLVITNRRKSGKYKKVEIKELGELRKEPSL

[5] = molecular target: T4, human Trop-2 on the surface of cells …; experiment: cell-based or functional assay; remark: listed apart in the source

- EC50 [1]: 0.0726 nM
- Kd [2]: 0.583 nM
- binding result [3]: no binding (tested: up to 3 µg/ml)
- Internalization percentage, 1 h, NCI-N87 cells, FACS [4]: 49.3%
- Internalization percentage, 1 h, BXPC-3 cells, FACS [5]: 37.4%
B1: Sacituzumab (antibody, human IgG1, kappa, V domains shown)
VH: QVQLQQSGSELKKPGASVKVSCKASGYTFTNYGMNWVKQAPGQGLKWMGWINTYTGEPTYTDDFKGRFAFSLDTSVSTAYLQISSLKADDTAVYFCARGGFGSSYWYFDVWGQGSLVTVSS
VL: DIQLTQSPSSLSASVGDRVSITCKASQDVSIAVAWYQQKPGKAPKLLIYSASYRYTGVPDRFSGSGSGTDFTLTISSLQPEDFAVYYCQQHYITPLTFGAGTKVEIKR
notes: expressed in HEK293; also called control antibody Sacituzumab; Saituzumab

- EC50 [1]: 0.124 nM
- Kd [2]: 0.507 nM
- binding result [3]: no binding (tested: up to 10 µg/ml)
- Internalization percentage, 1 h, NCI-N87 cells, FACS [4]: 54%
- Internalization percentage, 1 h, BXPC-3 cells, FACS [5]: 32.4%
B2: h23-12-25 (antibody, human IgG1, kappa, V domains shown)
VH: QVQLVQSGAEVKKPGASVKVSCKASGYTFTSYWMHWVRQAPGQGLEWMGEITPSDNYGSYNQKFKGRVTITRDTSTSTAYMELSSLRSEDTAVYYCARGHGNYVSFDYWGQGTLVTVSS
VL: DIQMTQSPSSLSASVGDRVTITCRASQDISNYLNWYQQKPGKAPKLLIYYTSRLESGVPSRFSGSGSGTDFTLTISSLQPEDFATYFCQQGYTLPPYTFGQGTKLEIKR
notes: also called h32-12
